From PMC6691574

Columns and labels:
[1] = Nile red staining after PA, SGC 7901; settings: glycan lost; control: wild-type CD36
[2] = fluorescent FA uptake kit, time course, SGC 7901; settings: glycan lost; control: wild-type CD36

B1: CD36: S468A (protein)
parent chain: MGCDRNCGLIAGAVIGAVLAVFGGILMPVGDLLIQKTIKKQVVLEEGTIAFKNWVKTGTEVYRQFWIFDVQNPQEVMMNSSNIQVKQRGPYTYRVRFLAKENVTQDAEDNTVSFLQPNGAIFEPSLSVGTEADNFTVLNLAVAAASHIYQNQFVQMILNSLINKSKSSMFQVRTLRELLWGYRDPFLSLVPYPVTTTVGLFYPYNNTADGVYKVFNGKDNISKVAIIDTYKGKRNLSYWESHCDMINGTDAASFPPFVEKSQVLQFFSSDICRSIYAVFESDVNLKGIPVYRFVLPSKAFASPVENPDNYCFCTEKIISKNCTSYGVLDISKCKEGRPVYISLPHFLYASPDVSEPIDGLNPNEEEHRTYLDIEPITGFTLQFAKRLQVNLLVKPSEKIQVLKNLKRNYIVPILWLNETGTIGDEKANMFRSQVTGKINLLGLIEMILLSVGVVMFVAFMISYCACRSKTIK
- other: transport activity [1]: decreases
- other: transport activity [2]: decreases

B2: CD36: T470A (protein)
parent chain: MGCDRNCGLIAGAVIGAVLAVFGGILMPVGDLLIQKTIKKQVVLEEGTIAFKNWVKTGTEVYRQFWIFDVQNPQEVMMNSSNIQVKQRGPYTYRVRFLAKENVTQDAEDNTVSFLQPNGAIFEPSLSVGTEADNFTVLNLAVAAASHIYQNQFVQMILNSLINKSKSSMFQVRTLRELLWGYRDPFLSLVPYPVTTTVGLFYPYNNTADGVYKVFNGKDNISKVAIIDTYKGKRNLSYWESHCDMINGTDAASFPPFVEKSQVLQFFSSDICRSIYAVFESDVNLKGIPVYRFVLPSKAFASPVENPDNYCFCTEKIISKNCTSYGVLDISKCKEGRPVYISLPHFLYASPDVSEPIDGLNPNEEEHRTYLDIEPITGFTLQFAKRLQVNLLVKPSEKIQVLKNLKRNYIVPILWLNETGTIGDEKANMFRSQVTGKINLLGLIEMILLSVGVVMFVAFMISYCACRSKTIK
- other: transport activity [1]: decreases
- other: transport activity [2]: decreases

B3: CD36: S468A/T470A (protein)
parent chain: MGCDRNCGLIAGAVIGAVLAVFGGILMPVGDLLIQKTIKKQVVLEEGTIAFKNWVKTGTEVYRQFWIFDVQNPQEVMMNSSNIQVKQRGPYTYRVRFLAKENVTQDAEDNTVSFLQPNGAIFEPSLSVGTEADNFTVLNLAVAAASHIYQNQFVQMILNSLINKSKSSMFQVRTLRELLWGYRDPFLSLVPYPVTTTVGLFYPYNNTADGVYKVFNGKDNISKVAIIDTYKGKRNLSYWESHCDMINGTDAASFPPFVEKSQVLQFFSSDICRSIYAVFESDVNLKGIPVYRFVLPSKAFASPVENPDNYCFCTEKIISKNCTSYGVLDISKCKEGRPVYISLPHFLYASPDVSEPIDGLNPNEEEHRTYLDIEPITGFTLQFAKRLQVNLLVKPSEKIQVLKNLKRNYIVPILWLNETGTIGDEKANMFRSQVTGKINLLGLIEMILLSVGVVMFVAFMISYCACRSKTIK
- other: transport activity [1]: decreases
- other: transport activity [2]: decreases
